The record followed here is patent publication US20260234247A1.

Residue numbers refer to the chain shown, from its start.

Experiment [1] has as its target Rhesus LILRB1 (NP_001035762.2) on CHOK1 cells (rhesus macaque) (UniProt F7H3G7). The experiment in a line: flow cytometry on CHOK1-rhesus LILRB1 (NP_001035762.2) cells. (In general: Flow cytometry measures light scatter and fluorescence of single cells or particles in a stream.)
Experiment [2] has the same target. As to the kind of experiment: cell based blocking assay on CHOK1-rhesus LILRB1 (NP_001035762.2) cells; blocked ligand not named.
The target in experiment [3] is Cynomolgus LILRB2 on CHOK1 cells (cynomolgus). The experiment in a line: flow cytometry on CHOK1-cyno LILRB2 cells.

B1: LK-RB1-34 (antibody, human IgG4 S228P, kappa, V domains shown)
VH: QVQLQQSGAELVKPGASVKLSCKASGYTFTEYTIHWVKQRSGQGLEWIGWFYPGSDSIKYNEKFKDKATLTADKSSSTVYMELSRLTSEDSAVYFCSRHEGPYFTSQYYFDYWGQGTTLTVSS
VL: DILLTQSPAILSVSPGERVSFSCRASRYIGTSIHWYQQRTNGSPRLLIKYASESISGIPSRFSGSGSGTDFTLSINSVESEDIADYYCQQSNTWPLTFGAGTKLELKR
Consider B1, for which, in experiment [1], the half-maximal effective concentration (EC50) (in general, the concentration that produces a half-maximal response) is 8.06 nM.

B2: LK-RB1-37 (antibody, human IgG4 S228P, kappa, V domains shown)
VH: QVQLQQPGAELVKPGASVKLSCKASGYTFTSYWMHWVKQRPGRGPEWIGRIDPNSGYARYNEKFKNKATLTADKPSSTADMHLSSLTSEDSAVYYCTRSFITTAEWFFDVWGTGTTVTVSS
VL: B1 VL with R27Q, Y28S, T40R, A51T, T93S, L96H, A100G
In experiment [1], B2 came in with a 50% effective concentration (EC50) of 37.7 nM.

B3: LK-RB1-45 (antibody, human IgG4 S228P, kappa, V domains shown)
VH: QVQLQQSGTELARPGASVKLSCKASGYTFTNFWMHWIKQRPGQGLEWIGYVNPTSDYTKYNQKFKDKATLTADKSSSTAYMQLNSLTYEDSAVYYCTRSSLYDTNYVFDSWGQGTTLTVSS
VL: B1 VL with R27Q, Y28S, T31R, S65G, N76S, S77N, T93N, L96F, A100S, L106I
Regarding B3, the EC50 in experiment [1] turned out to be 96.1 nM.

B4: LK-RB1-35 (antibody, human IgG4 S228P, kappa, V domains shown)
VH: DVQLQESGPGLEKPSQSLSLTCSVTGYSITRGYQWNWIRQFPGNKLEWMGYISYDGSNNYNPSLKNRISITRDASKNQFFLKLNSVTTEDTATYYCARRSYNSIDYWGQGTTLTVSS
VL: DIVLTQSPATLSVTPGDSVSLSCRASQSISSNLHWYQQKSHESPRLLIKYASQSISGIPSRFSGSGSGTDFTLSINSVETEDFGMYFCQQSNSWPLTFGAGTKLELKR
As to B4, in experiment [1], the EC50 was found to be 0.64 nM.

B5: LK-RB1-38 (antibody, human IgG4 S228P, kappa, V domains shown)
VH: DVQLQESGPGLVQPSQSLSLTCSVTGYSITSGYQWNWIRQLPGNKLEWMAYISFDGSNNYNPSLKNRISITRDTSKNQFFLKLKSVTTEDTATYYCARRDYDGVAYWGQGTLVTVSA
VL: B4 VL with D1E, S18R, S28N, S31N, N32Y, E42G, L47I
Take B5: the EC50 in experiment [1] came to 4.97 nM.

B6: LK-RB1-36 (antibody, human IgG4 S228P, kappa, V domains shown)
VH: B4 VH with T71I, A74T
VL: B4 VL with S31N
In experiment [1], B6 had a concentration for a half-maximal effect (EC50) of 0.54 nM.

B7: LK-RB1-50 (antibody, human IgG4 S228P, kappa, V domains shown)
VH: QVQLKQSGPGLVQPSQSLSITCTVSGFSLTSYGVHWVRQSPGKGLEWLGVIWRGGNTDYNAPFVSRLSITKDNSQSQVFFKMNSLEADDTAIYYCAKNSLDVYSSWYFDVWGTGTTVTVSS
VL: QIVLSQSPAILSAFPGEKVTMTCRASSSVSFMHWYQQKPGSSPKPWIYATSNLASGVPARFSGSGSGTSYSLTISRVEAEDAATYYCQQWSSNPLTFGAGTKLELKR
B7 came in with a 50% effective concentration (EC50) in experiment [1] of 11.2 nM. In experiment [2], this molecule gave an EC50 of 5.68 nM and a Top Inhibition (%) of 57.8%.

B8: LK-RB1-58 (antibody, human IgG4 S228P, kappa, V domains shown)
VH: QVQLKQSGPGLVQPSQSLSITCTVSGFSLTTYGVHWVRQSPGKGLEWLGVIWRGGSTDYNAAFMSRLSITKDNSKSQVFFRMNSLQADDTARYYCAKNSLYYGSSWYFDVWGTGTTVTVSS
VL: B7 VL with F14S, L95P, A99G, L105I
B8 displayed a concentration for a half-maximal effect (EC50) in experiment [1] of 158 nM. In experiment [2], this molecule came in with an EC50 of 1.42 nM and a Top Inhibition (%) of 45.4%.

B9: LK-RB1-56 (antibody, human IgG4 S228P, kappa, V domains shown)
VH: B8 VH with T23S, T31N, Y59N, R81K, R92I, L100D, Y101F
VL: B7 VL with F14S, S92R, L95P
In experiment [1], B9 displayed an EC50 of 29.2 nM. In experiment [2], the 50% effective concentration (EC50) was found to be 2.42 nM and the Top Inhibition (%) came out at 15.9%.

B10: 15G8 (antibody, human IgG4 S228P, kappa, V domains shown)
VH: DVQLQGSGPGLVKPSETLSLTCSVTGYSITSGYYWNWIRQFPGKKLEWMGYISYDGSNNYNPSLKNRITISRDTSKNQFSLKLNSVTAADTATYYCAHGYSYYYAMDAWGQGTSVTVSS
VL: DIQMTQSPSSLSASVGDRVTITCRTSQDISNYLNWYQQKPGKAVKLLISYTSRLHSGVPSRFSGSGSGTDYTLTISSLQPEDFATYYCQQGNTLPTFGQGTKLEIKR
For the molecule B10, the EC50 in experiment [1] came out at 24.1 nM. In addition, in experiment [2], the EC50 is 4.56 nM and the Top Inhibition (%) was 88.1%.

B11: LK-RB2-25 (antibody, human IgG4 S228P, kappa, V domains shown)
VH: QVQLKESGPGLVAPSQSLSITCTVSGFSLTSYGVHWVRQPPGKGLEWLGVIWAGGSTKYNSALMSRLSINKDNSKSQVFLKMNSLQTDDTAMYYCARDQMVRSAMDYWGQGTSVTVSS
VL: DIQMIQSPSSMFASLGDRVSLSCRASQGIRGNLDWYQQKPGGTIKLLIYSTSNLNSAVPSRFSGSGSGSDYSLTISNLESEDFADYYCLQRNASPYTFGGGTKLEIKR
Regarding B11, in experiment [3], the EC50 came out at 1.48 nM.

B12: LK-RB2-26 (antibody, human IgG4 S228P, kappa, V domains shown)
VH: B11 VH with K58D, S61A, L63F, M64I, S68N, N70S, N73I, K75E, L80F, K81R
VL: B11 VL
B12 registered a concentration giving a half-maximal response (EC50) in experiment [3] of 2.11 nM.

B13: LK-RB1-51 (antibody, human IgG4 S228P, kappa, V domains shown)
VH: QVQIQQSGAELVKPGASVKLSCKASGYTFTEFPIHWIKQRSGQGLEWIGWFYPGSDNMNYNEKFKDKATLTADKSSSTVYMELSRLTSEDSAVYFCARHENAYFYAMDYWGQGTSVTVSS
VL: ENVLTQSPAIMSASLGEKVTMSCRASSSVNYMYWYQQKSDASPKIWIYYTSNLAPGVPARFSGSGSGNSYSLTISSMEGEDAATYYCQQFTSSPFTFGTGTKLEIKR
Consider B13, for which, in experiment [1], the EC50 stood at 21.4 nM. In experiment [2], this molecule registered an EC50 of 0.87 nM and a Top Inhibition (%) of 64.9%.

B14: LK-RB1-54 (antibody, human IgG4 S228P, kappa, V domains shown)
VH: DVQLQESGPGLVKPSQSLSLTCSVTGYSITSGFYWNWIRQFPGNKLEWMGHISYDGTNNYNPSLKNRISITRDTSKNLFFLKLNSVTTEDTATFHCARGGYGGSYGFDYWGQGTTLTVSS
VL: B13 VL with I45L, A59V, F95W, T99G
In experiment [2], B14 registered an EC50 of 1.2 nM and a Top Inhibition (%) of 54%.

B15: LK-RB2-8 (antibody, human IgG4 S228P, kappa, V domains shown)
VH: QIQLVQSGPELKKPGETVKISCKASGYSFASYGMGWVKQAPGKGLKWLGWINTHSGVPTYADDFKGRFAFSLETSASTAYLQINNLKNEDTATYFCAHYGRPWFPYWGQGTLVTVSA
VL: DIQMTQSPASLSASVGETVTITCRTSENIYSYLAWYQQKQGKSPQLLVYNAKSLAEGVPSRFSGSGSGTQFSLRINSLQPEDFGTYYCQQHYETPLTFGAGTKLELKR
B15 had an EC50 in experiment [1] of 15.1 nM.

B16: LK-RB2-16 (antibody, human IgG4 S228P, kappa, V domains shown)
VH: B15 VH with S28T, A30T, S31T, G42E, L48M, H54N, V57A, A61G, P105A
VL: B15 VL with T25A, Q37H, K42E, S53T, R74K, T85S, Q90H, E93N, T94I
The molecule B16 returned an EC50 in experiment [1] of 18.5 nM.

B17: LK-RB1-43 (antibody, human IgG4 S228P, kappa, V domains shown)
VH: EFQLQQSGPELMKPGASVKISCKASGYSFTDYNMNWVKQSNGKSLEWIGIIDPNYGTTTYNQKFKGRATLTVDQSSNTAYMQLNSLTSEDSAVYYCAREGRYSWFAYWGQGTLVTVSA
VL: DIQMTQSPGALSVSVGETVTITCRASENINSNLAWYQQKQGKSPQLLVYAATNLADGVPSRFSGSGSGTQYSLKINSLQSEDFGSYHCQHFWGTPFTFGSGTKLEIKR
Turning to B17, the half-maximal effective concentration (EC50) in experiment [1] came to 1.62 nM.

B18: LK-RB1-59 (antibody, human IgG4 S228P, kappa, V domains shown)
VH: QIQLVQSGPELKKPGETVKISCKASGYTFTTYGMSWVKQAPGKGLKWMGWINTYSGVPTYADDFKGRFAFSLETSASTAYLQINNLKNEDTATYFCARRRIYYGNKGYAMDYWGQGTSVTVSS
VL: B17 VL with G9A, A10S, N30Y, A34V, A50T, Y71F, H87Y, F96W, S100G
Turning to B18, in experiment [1], the EC50 amounted to 40.2 nM.

B19: LK-RB1-39 (antibody, human IgG4 S228P, kappa, V domains shown)
VH: EVQLQQSGAELVRPGASVKLSCTASGFNIKDDYVHWVNQRPEQGLEWIGWIDPENGDTGYASKFQDKATITADTSSNTAYLHLSSLTSEDTAVYYCTTTRWTGSYWGQGTTLTVSS
VL: QIVLTQSPAIMSASPGEKVTITCSASSSVNYMHWFQQKPGSSPKLWIYSTANLASGVPARFSGSGSGTSYSLTISRMEAEDAATYYCQQRSSYPPTWTFGGGTKLEIKR
Consider B19, for which the 50% effective concentration (EC50) in experiment [1] amounted to 0.36 nM; in experiment [2], 0.16 nM. This molecule gave a Top Inhibition (%) in experiment [2] of 73.1%.

B20: LK-RB1-44 (antibody, human IgG4 S228P, kappa, V domains shown)
VH: B3 VH with R13K, F32Y, N52H
VL: DILLTQSPAILSVSPGERVSFSCRASQSIGRSIHWFQQRTNGSPSLLIKYASESISGIPSRFSGGGSGTDFTLSISNVESEDIADYYCQQSNNWPFTFGSGTKLEIKR
B20 registered a 50% effective concentration (EC50) in experiment [1] of 769 nM.

B21: LK-RB1-46 (antibody, human IgG4 S228P, kappa, V domains shown)
VH: EVQLQQSGPELVKPGASVKISCKTSGYTFTDYYMNWVKQSHGKSLEWIGDIYPINGDISYNQKFKGKATLTVDKSSSTVYMEIRSLTYEDSAVYYCARLAQTTSGGFDYWGQGTTLTVSS
VL: DIVLTQSPTSLAVSLGQRAIISCKASQSVSFAGTSLMHWYQQKPGQQPKLLIYRASNLKAGVPTRFSGSGSRTDFTLNIHPVEEDDAATYYCQQSREYPMYTFGGGTKLEIKR
In turn, B21 displayed a 50% effective concentration (EC50) in experiment [1] of 2.71 nM.

B22: LK-RB1-42 (antibody, human IgG4 S228P, kappa, V domains shown)
VH: QVQLQQPGAELVKPGTSVKLSCKASGYSFISYWVYWVKQRPGQGLEWIGMIHPNSGSTNFNEKFRYKATLTVDKSSSTAYIQLSSLTSEDSAVYYCGRSDDGYPYHAMDSWGQGTSVTVSS
VL: DIVMTQSQKFMSTSVGDRVSVTCKASQNVGTNVAWYQQKPGQSPKALIYSASYRFSGVPDRFTGSGSGTDFTLTIGNVQSEDLAEYFCHQYKNYPLTFGGGTKLEIKR
B22 had a concentration for a half-maximal effect (EC50) in experiment [1] of 59.8 nM.
